What was measured:
Experiment in all cases: purified protein
Type in all cases: biochemical, Mycosarcoma maydis
O=C(O)[C@H](O)CO = conditions: oxidation, 40°C, assay buffer 50 mM glycine pH 8.5, cofactor not stated for this row, pH 8.5
[1] = test system: NC(=O)c1ccc[n+]([C@@H]2O[C@H](COP(=O)(O)OP(=O)(O)OC[C@H]3O[C@@H](n4cnc5c(N)ncnc54)[C@H](OP(=O)(O)O)[C@@H]3O)[C@@H](O)[C@H]2O)c1; conditions: oxidation, co-substrate D-glycerate, 40°C, assay buffer 50 mM glycine pH 8.5, pH 8.5, varied: cofactor
[2] = test system: NC(=O)C1=CN([C@@H]2O[C@H](COP(=O)(O)OP(=O)(O)OC[C@H]3O[C@@H](n4cnc5c(N)ncnc54)[C@H](O)[C@@H]3O)[C@@H](O)[C@H]2O)C=CC1; conditions: reduction, co-substrate tartronic semialdehyde, 40°C, varied: cofactor
O=CC(O)C(=O)O = conditions: reduction, cofactor NADH, 40°C, substrate made by enolization of lithium hydroxypyruvate (about 50% conversion, quantified by HPLC)

## rTsr1 (Um02592, tartronate semialdehyde reductase) (Mycosarcoma maydis; E78D)
O=C(O)[C@H](O)CO
  Km: 17700 ± 2300 µM
  Vmax: 1.14 µmol/min/mg
[1]
  Km: 0.30 ± 0.04 µM
  Vmax: 0.93 µmol/min/mg
[2]
  Km: 14.29 ± 3.1 µM
  Vmax: 5.07 µmol/min/mg
O=CC(O)C(=O)O
  Km: 190 ± 30 µM
  Vmax: 0.17 µmol/min/mg
